Laboratory results reported in the supplement of paper PMC9170038.

Test system: MS2 coat protein
Test: apparent KD of MS2 coat protein; higher = weaker reporter binding
Settings: Eterna round: R107
Method: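 RNA-MaP round R107: designed RNA switches with theophylline, tryptophan, arginine or FMN aptamers are transcribed on-chip within common flanks. They are titrated with SNAP-549-labelled MS2 coat protein in RNA-MaP buffer (100 mM Tris pH 7.5, 80 mM KCl, 4 mM MgCl2), without ligand or with the indicated ligand. Median apparent KD per design.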

[1] = input ligand: theophylline 20 uM
[2] = input ligand: theophylline 2 mM
[3] = input ligand: tryptophan 2.4 mM

| Sequence | apparent KD of MS2 coat protein (input ligand: arginine 13.2 mM) [µM] | apparent KD of MS2 coat protein (input ligand: none) [µM] | apparent KD of MS2 coat protein [1] [µM] | apparent KD of MS2 coat protein [2] [µM] | apparent KD of MS2 coat protein [3] [µM] |
| --- | --- | --- | --- | --- | --- |
| ACCUGUACGAAAAGUGCAGGACAGGAAAAUCGAGGACCGGUACGGCCGCCACUCGUAUAAACAAGUGGAUCACCCUUGUAACCUG [TrypAS 1 #AlternativeMS2 #Zipper] | 0.458 | 0.664 | 1.06 | 1.76 | 1.61 |
| ACGAACGAUAGUGAUACCAGACGUACAUGAGGAUCACCCAUGUUUUGGGUAAGGUUAAUAGUCCCUUGGCAGCACUUUAAGUUCG [JR_ExcTheophyB_Sub007] | 0.0446 | – | 0.0808 | – | 0.0509 |
| ACGAACUGUAGUGAUACCAGACACACAUGAGGAUCACCCAUGUUGUUAGCAUGGUGAAUAGUCCCUUGGCAGCACAGUUAGUUCG [#12 Exclusion-TheophyllineB] | 0.0715 | – | 0.111 | – | 0.0943 |
| ACGAUACGACAUGAGGAUCACCCAUGUGAUACCAGCGUGGAAACACGCCCUUGGCAGCACAAAUACUCCAGAAACGUAUCGAAAA [MAT - Exclusion Theophlline A - Mod of Eli - D7] | 0.0933 | – | 0.258 | – | 0.285 |
| ACGAUAGGACCUGAGGAUCACCCAGGUGAUACCAGCCUGGAAACAGGCCCUUGGCAGCACCAAUACUCCAAUAACCUAUCGAAUA [TheoAX 11 #MicroSwitchBubble #AlternativeMS2] | 0.0968 | 0.22 | 0.442 | 0.372 | 0.213 |
| ACGAUAGGACUUGAGGAACACCCAAGUGAUACCAGCCUGGAAACAGGCCCUUGGCAGCACUAAUACUCCAAUAACCUAUCGAAUA [TheoAX 15 #MicroSwitchBubble #AlternativeMS2] | 0.14 | 0.212 | 0.172 | 0.0667 | 0.155 |
| ACGCCCAGGUAGGCUUAGUGGGAAAUGGAAGGAGCGCUGAUGCAAGCAGGUAGGUCGCCAACGAACAUGAGGAUCACCCAUGUAA [Same State - Arginine A (Freestyle 1)] | 0.014 | 0.0179 | 0.0298 | 0.0207 | 0.0164 |
| ACGCGCUGGGCGGCCGCCACUCACCUGCCGUGGACAUUUCGAGGUCACAUGAGGAUCACCCAUGUGAGGACCGGGCCCUGUAGGC [theeternabot_exclusion_MS2_Trp_B_37] | 0.0123 | – | 0.017 | 0.0127 | – |
| ACGCUGAUUGAUUACAAUCAGCGAAAAGAUACCAGUGGGUAAUCCCACCCUUGGCAGCUUAAACAAGAGGAUCACCCUUGUGGUA [TheoAS 16 #MS2Right #BothOrNeither #AlternativeMS2] | 0.102 | 0.201 | 0.37 | 0.238 | 0.521 |
| ACGCUGAUUGAUUACAAUCAGCGAAAAGAUACCAGUGGGUAAUCCCACCCUUGGCAGCUUAAACAUGAGCAUCAGCCAUGUGGUA [TheoAS 15 #MS2Right #BothOrNeither #AlternativeMS2] | 0.0779 | 0.119 | 0.114 | 0.0372 | 0.142 |
| ACGGAUCGGAAACGAUCCGCGGCAAGGGUACGAGGACCGGUACGGCCGCCACUCGGCUAACAUGAGGAUCACCCAUGUCCGAAGA [ETA NP+V+V2 #8] | 0.0419 | 0.0607 | 0.0597 | 0.0722 | 0.0722 |
| ACGGAUCGGAAACGAUCCGCGGCUAGGGUGCGAGGACCGGUACGGCCGCCACUCGGGUAACAUGAGGAUCACCCAUGUCCGAUUU [ETA NP+V+V2 #13 Same Structure] | 0.0364 | 0.0927 | 0.079 | 0.143 | 0.198 |
| ACGUCAUGGAGAACGUGACGACUUAUCGAUACCAGCGAUUGAGAGCGCCCUUGGCAGCGAACAUGAGGAUCACCCAUGUCAAGGG [Same State - Theophylline A] | 0.0291 | – | 0.0365 | – | 0.0294 |
| ACGUGCAGCAGAAGGAGCGUCUUAAUUCUACAUGAGGAUCACCCAUGUUUACAUUGGAUAUGACAGGUAGGUCGCUGAAGUACGA [#05 Same State - Arginine B] | 0.0362 | 0.03 | 0.0417 | 0.0372 | 0.018 |
| ACUUGUGAGUCGGCCGCCACUCACCGGUAGUGUCACUCGUUCACAAACAUGAGGAUCACCCAUGUGAGGACCGGGACAGUCGGGU [theeternabot_exclusion_MS2_Trp_B_28] | 0.0135 | – | 0.0254 | 0.0163 | – |
| AGAGGUAUACAUGGAAACAUGUAUAUUUCACGAGGACCGGUACGGCCGCCACUCGGUACCGGAAACACAUGAGGAUCACCCAUGU [Ex_TrypA - H1] | 0.017 | – | 0.0232 | 0.0243 | – |
| AGAGUCUAGUCGGCCGCCACUCAUGUCCAAUGGACAUGAGGAUCACCCAUGUACCAAAGGUACAUGAGGACCGGGACUGGACUCA [Omei Tryp B SS C v4] | 0.0272 | – | 0.209 | 0.0833 | – |
| AGAGUUAGACAAAAGUCUAGCUCACCAGAAGGAGCGUCCGAAAGGACAGGUAGGUCGCUGGUACAUGAGGAUCACCCAUGUUCCU [ArgAS 8 #OpenEnded] | 0.0435 | 0.124 | 0.116 | 0.145 | 0.082 |
| AGAUGUAGCGGAAGGAGCGACAAGAGGAUCACCCUUGUCUCCCGUUGUGGGAGUUCCUUAGGUCAGGUAGGUCGCCGUUACGUCA [Omei Arg B SS B v4] | 0.0227 | 0.0229 | 0.0384 | 0.0286 | 0.025 |

| Sequence | apparent KD of MS2 coat protein (input ligand: arginine 13.2 mM) [µM] | apparent KD of MS2 coat protein (input ligand: none) [µM] | apparent KD of MS2 coat protein [1] [µM] | apparent KD of MS2 coat protein [2] [µM] | apparent KD of MS2 coat protein [3] [µM] |
| --- | --- | --- | --- | --- | --- |
| AGAUUCGACACGGCCGCCACUCGUGGUGGAUUACCUAGUGUCGAACAUGAGGAUCACCCAUGUACGAGGACCGGGUGUUGAGUCU [XTryp B #18] | 0.0405 | – | 0.0856 | 0.086 | – |
| AGCAACAAGUCGGCCGCCACUCUUUUUACAUGAGGAUCACCCAUGUUUAUAUCAUGGUCUUAAUAGAGGACCGGGACAGUUGCAU [JR_ExcTryptoB_Sub006] | 0.0286 | – | 0.0537 | 0.0469 | – |
| AGCACAUGAGGAUCACCCAUGUGUCGGUACCGAGGACCGGUACGGCCGCCACUCGCAGGACAUGAGGAUCACCCAUGUGCCGCCG [SSTA DOUBLE!!! :-D #8] | 0.014 | – | 0.0361 | 0.0359 | – |
| AGCAUGUUAUCAGAUACCAGACAUCUUUUUUUACGUAUUACAUGAGGAUCACCCAUGUUGGUCCCUUGGCAGCUGAAAUAUUUCA [JR_Nu_SSTheophyB_Sub022] | 0.167 | – | 0.269 | – | 0.219 |
| AGCUCGCAUCCUCUAGCGUCAAAGACGCCUCGAGGACCGGUACGGCCGCCACUCGAGAUGAGGAUCACCCAUCUCAAAGCGAGCA [TrypAX 14 #SwitchBubble #AlternativeMS2 #MS2Late #CuTurnoff] | 0.0716 | – | 0.197 | 0.254 | 0.156 |
| AGGACAUGAGGAUCACCCAUGUACUCUGAAGGAGCGUCGAGAACGACAGGUAGGUCGCAGGCUAAGGAAGGUGAUGCUCAAGAAG [Exclusion Arginine A GF7] | 0.0201 | 0.0202 | 0.0373 | 0.0248 | 0.0152 |
| AGGACCAGGAUCCUCAUGUAACUGGUCCAACGAGGACCGGUACGGCCGCCACUCGAAUAAACAUGAGGAUCACCCAUGUAAUAAU [T''-M-T'-T-MS2] | 0.0369 | 0.268 | 0.169 | 0.313 | 0.426 |
| AGGUGCAAAGCACCCUCUGGCCCUCGUGAAGGAGCGCUCGAAAGAGCAGGUAGGUCGCAUGAGGAUCACCCAUGUGAGCCAGAGA [Arg A Exc A v1] | 0.0351 | 0.0525 | 0.0835 | 0.0653 | 0.0562 |
| AGUAACAUGAGGAUCACCCAUGUAUGAGAAGGAGCGUGUUUUAACACAGGUAGGUCGCUCAAUAUUAUUUACUAGCGAAAGCUAG [JR_SSArginiA_Sub007] | 0.022 | 0.0146 | 0.0233 | 0.0179 | 0.018 |
| AGUACUCGAACGGAUACCAGCCGGACAUGAGGAUCACCCAUGUCCUACCAUGGUUCGGUUGGCCCUUGGCAGCCGUUCGUGUACA [Omei Theo B SS A v3] | 0.128 | – | 0.204 | – | 0.203 |
| AGUAUCAGUGGAAGGAGCGUCGCGAAUGUCACAUGAGGAUCACCCAUGUCGUCUUGAGCGCGACAGGUAGGUCGCCACGGUAGGC [SS-ArgB4] | 0.0121 | 0.0101 | 0.0159 | 0.0145 | 0.0135 |
| AGUUACAUGAGGAUCACCCAUGUCCGGUUGCGAGGACCGGUACGGCCGCCACUCGGGUACAUCCCAGAAAAUACUGAAUGCCUGC [theeternabot_sameState_MS2_Trp_A_15] | 0.0418 | – | 0.0664 | 0.0845 | – |
| AUAAAUGGGUUAAUUAGUUUUAGGUCCAGUCGAGGACCGGUACGGCCGCCACUCGUCCCAAGUUACAUGAGGAUCACCCAUGUUA [JR_ExcTryptoA_Sub014] | 0.0338 | – | 0.0525 | 0.0919 | – |
| AUAACAUGAGGAUCACCCAUGUUGAGUGAUACCAGACCAUGUAGUGUCCCUUGGCAGCACAGGUAAAGUUGUAAAUAACGAUAGA [#13 SameState-TheophyllineA] | 0.0386 | 0.0539 | 0.0647 | 0.0228 | 0.0597 |
| AUAAGGUAUCUGCUUCAUGGGUGAGCAGAUACCAGCUAGGAAACUAGCCCUUGGCAGCUGCAACAUGAGGAUCACCCAUGUAAUA [(T)'-(M)'-(T1)-(T2)-(M1)-(M2)_Design2] | 0.0607 | 1.06 | 0.149 | 0.964 | 0.142 |
| AUACAUGAGGAUCACCCAUGUCCUCGUGAUCGAGGACCGGUACGGCCGCCACUCGGUCCUCGCGAGGAGGAGUCAAAGACUCCAA [Omei Trp A SS A v4] | 0.0385 | 0.0829 | 0.111 | 0.113 | 0.0538 |
| AUACCACCUUCGGCCGCCACUAUGUAUGGGUUCCCAACGUUGAAGGACAUGAGGAUCACCCAUGUUAGGACCGGGAAAAGUGCCU [theeternabot_exclusion_MS2_Trp_B_17] | 0.0453 | – | 0.106 | 0.103 | – |
| AUAUAUACAUGAGGAUCACCCAUGUUAUUUCGAGGACCGGUACGGCCGCCACUCGAUAGAGUAGAAGUAAAUUUUGUUACAUGUA [JR_SSTryptoA_Sub010] | 0.0104 | – | 0.0137 | 0.0108 | – |
